In patent US20100068766A1, “COMPOSITION FOR CLEAVING AND/OR CONNECTING SINGLE STRAND DNA” (WASEDA UNIVERSITY, priority 2007, published 2010):

How the values were obtained:
[1] = biological target: T1, Ev1 protein (Homo sapiens, UniProt Q9UI08); assay: Influence of Rad51B or Rad51 on catenation of single-stranded DNA by the Ev1 protein; type: biochemical
T1 construct: in accordance with the protocols used in purification of the entire-length Ev1 protein; 6xHis (N, cleaved yes); made in house; host or cells: E. coli BL21 (DE3) codon plus-RP, pET15b vector
T1 sequence (Q9UI08 1-418 isoform Q9UI08-2): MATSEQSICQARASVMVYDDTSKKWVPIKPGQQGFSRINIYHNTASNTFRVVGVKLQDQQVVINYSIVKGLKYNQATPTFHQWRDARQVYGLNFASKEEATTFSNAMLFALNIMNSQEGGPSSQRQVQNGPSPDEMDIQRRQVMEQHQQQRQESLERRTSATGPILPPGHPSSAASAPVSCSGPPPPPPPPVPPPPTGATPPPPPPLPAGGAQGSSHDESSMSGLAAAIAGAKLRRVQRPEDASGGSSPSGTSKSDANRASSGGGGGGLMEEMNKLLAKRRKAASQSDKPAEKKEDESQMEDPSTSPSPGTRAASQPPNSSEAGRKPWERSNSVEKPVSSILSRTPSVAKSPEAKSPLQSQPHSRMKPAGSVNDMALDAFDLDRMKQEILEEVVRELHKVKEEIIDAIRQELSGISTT
Procedure: Lanes 1 and 5 indicate the results of control experiments in which neither the Ev1 nor the Rad51B protein was used. Lanes 2 and 6 indicate the results of experiments that were carried out using a 4 μM Rad51B protein in the absence of the Ev1 protein. Lanes 3 and 7 indicate the results of experiments that were carried out using a 4 μM Ev1 protein in the absence of the Rad51B protein. Lanes 4 and 8 indicate the results of experiments that were carried out using a 4 μM Ev1 protein and a 4 μM Rad51B protein. Further, lanes 1-4 indicate the results of experiments that were carried out in the presence of ATP, and lanes 5-8 indicate the results of experiments that were carried out in the absence of ATP. […] Lanes 1 and 5 indicate the results of control experiments in which neither the Ev1 nor the Rad51 protein was used. Lanes 2 and 6 indicate the results of experiments that were carried out using a 4 μM Rad51 protein in the absence of the Ev1 protein. Lanes 3 and 7 indicate the results of experiments that were carried out using a 4 μM Ev1 protein in the absence of the Rad51 protein. Lanes 4 and 8 indicate the results of experiments that were carried out using a 4 μM Ev1 protein and a 4 μM Rad51 protein. Further, lanes 1-4 indicate the results of experiments that were carried out in the presence of ATP, and lanes 5-8 indicate the results of experiments that were carried out in the absence of ATP.
The Rad51B protein was mixed in a concentration of 0.5 to 8 μM with a 4 μM Ev1 protein, and the activity was then measured. Lane 1 indicates the results of a control experiment in which neither the Rad51B protein nor the Ev1 protein was added, and lane 8 indicates the results of a control experiment in which a 8 μM Rad51B protein was added and no Ev1 protein was added. Lanes 2-7 indicate the results of experiments in which the Rad51B protein was added in concentrations of 0 μM, 0.5 μM, 1.0 μM, 2.0 μM, 4.0 μM, and 8.0 μM, respectively, in the presence of 4 μM Ev1.
A φ×174 or M13 mp18 circular single-stranded DNA (20 μM) was incubated at 37° C. in 20 mM HEPES-NaOH (pH 7.5), 1 mM DTT, 1 mM MgCl2, and 0.1 mg/ml BSA. Thereafter, the sample was subjected to a deproteination treatment with 0.2% SDS and 1.3 mg/ml proteinase K. The obtained product was separated by 0.9% agarose gel electrophoresis, and a DNA band was then stained with SYBR Gold (Invitrogen).

[2] = biological target: T1, Ev1 protein; assay: Catenation of single-stranded DNA in coexistence of DNA topoisomerase type I protein and Ev1 protein; type: biochemical; conditions: 20 μM φ×174 single-stranded DNA; 37° C., 1 hour; E. coli TopoI 0.05-5 U or 2.8 nM hsTopoI
Procedure: A 20 μM φ×174 single-stranded DNA, a 4 μM Ev1 protein, and a DNA topoisomerase type I protein in each concentration or unit number (derived from Escherichia coli or a human) were added to 10 μl of a reaction solution (20 mM HEPES, 1 mM DTT, 100 μg/ml BSA, and 1 mM MgCl2). The obtained mixture was reacted at 37° C. for 1 hour. Thereafter, the sample was subjected to a deproteination treatment using 0.2% SDS and 1.3 mg/ml proteinase K. The obtained product was separated by 0.9% agarose gel electrophoresis, and a DNA band was then stained with SYBR Gold (Invitrogen) (FIG. 13).

B1: Rad51 protein: Rad51 protein showing sequence similarity to Rad51B (protein, UniProt Q06609 2-339, looked up)
DNA repair protein RAD51 …: AMQMQLEANADTSVEEESFGPQPISRLEQCGINANDVKKLEEAGFHTVEAVAYAPKKELINIKGISEAKADKILAEAAKLVPMGFTTATEFHQRRSEIIQITTGSKELDKLLQGGIETGSITEMFGEFRTGKTQICHTLAVTCQLPIDRGGGEGKAMYIDTEGTFRPERLLAVAERYGLSGSDVLDNVAYARAFNTDHQTQLLYQASAMMVESRYALLIVDSATALYRTDYSGRGELSARQMHLARFLRMLLRLADEFGVAVVITNQVVAQVDGAAMFAADPKKPIGGNIIAHASTTRLYLRKGRGETRICKIYDSPCLPEAEAMFAINADGVGDAKD
effect on catenation of DNA molecules by the Ev1 protein ([1]; 4 μM Rad51, 4 μM Ev1 protein, regardless of presence or absence of ATP): inhibited the catenation of DNA molecules by the Ev1 protein

B2: Rad51B: Rad51B protein purified by the previously reported method (Yokoyama et al.) (protein)
chain: MGSKKLKRVGLSQELCDRLSRHQILTCQDFLCLSPLELMKVTGLSYRGVHELLCMVSRACAPKMQTAYGIKAQRSADFSPAFLSTTLSALDEALHGGVACGSLTEITGPPGCGKTQFCIMMSILATLPTNMGGLEGAVVYIDTESAFSAERLVEIAESRFPRYFNTEEKLLLTSSKVHLYRELTCDEVLQRIESLEEEIISKGIKLVILDSVASVVRKEFDAQLQGNLKERNKFLAREASSLKYLAEEFSIPVILTNQITTHLSGALASQADLVSPADDLSLSEGTSGSSCVIAALGNTWSHSVNTRLILQYLDSERRQILIAKSPLAPFTSFVYTIKEEGLVLQAYGNS
effect on catenation of DNA molecules by the Ev1 protein ([1]; 4 μM Rad51B, 4 μM Ev1 protein, absence of ATP): not significant
effect on catenation of DNA molecules by the Ev1 protein ([1]; 4 μM added protein, 4 μM Ev1 protein, presence of ATP): significantly promoted

B3: DNA topoisomerase type I protein derived from Escherichia coli: TopoI (E. coli, New England Biolabs) (protein, UniProt P06612 1-865, looked up)
DNA topoisomerase 1: MGKALVIVESPAKAKTINKYLGSDYVVKSSVGHIRDLPTSGSAAKKSADSTSTKTAKKPKKDERGALVNRMGVDPWHNWEAHYEVLPGKEKVVSELKQLAEKADHIYLATDLDREGEAIAWHLREVIGGDDARYSRVVFNEITKNAIRQAFNKPGELNIDRVNAQQARRFMDRVVGYMVSPLLWKKIARGLSAGRVQSVAVRLVVEREREIKAFVPEEFWEVDASTTTPSGEALALQVTHQNDKPFRPVNKEQTQAAVSLLEKARYSVLEREDKPTTSKPGAPFITSTLQQAASTRLGFGVKKTMMMAQRLYEAGYITYMRTDSTNLSQDAVNMVRGYISDNFGKKYLPESPNQYASKENSQEAHEAIRPSDVNVMAESLKDMEADAQKLYQLIWRQFVACQMTPAKYDSTTLTVGAGDFRLKARGRILRFDGWTKVMPALRKGDEDRILPAVNKGDALTLVELTPAQHFTKPPARFSEASLVKELEKRGIGRPSTYASIISTIQDRGYVRVENRRFYAEKMGEIVTDRLEENFRELMNYDFTAQMENSLDQVANHEAEWKAVLDHFFSDFTQQLDKAEKDPEEGGMRPNQMVLTSIDCPTCGRKMGIRTASTGVFLGCSGYALPPKERCKTTINLVPENEVLNVLEGEDAETNALRAKRRCPKCGTAMDSYLIDPKRKLHVCGNNPTCDGYEIEEGEFRIKGYDGPIVECEKCGSEMHLKMGRFGKYMACTNEECKNTRKILRNGEVAPPKEDPVPLPELPCEKSDAYFVLRDGAAGVFLAANTFPKSRETRAPLVEELYRFRDRLPEKLRYLADAPQQDPEGNKTMVRFSRKTKQQYVSSEKDGKATGWSAFYVDGKWVEGKK
effect on catenation of single-stranded DNA molecules in coexistence with the Ev1 protein [2]: promoted

B4: DNA topoisomerase type I protein derived from a human: hsTopoI (human, Jena Bioscience) (protein, UniProt P11387 2-765, looked up)
DNA topoisomerase 1: SGDHLHNDSQIEADFRLNDSHKHKDKHKDREHRHKEHKKEKDREKSKHSNSEHKDSEKKHKEKEKTKHKDGSSEKHKDKHKDRDKEKRKEEKVRASGDAKIKKEKENGFSSPPQIKDEPEDDGYFVPPKEDIKPLKRPRDEDDADYKPKKIKTEDTKKEKKRKLEEEEDGKLKKPKNKDKDKKVPEPDNKKKKPKKEEEQKWKWWEEERYPEGIKWKFLEHKGPVFAPPYEPLPENVKFYYDGKVMKLSPKAEEVATFFAKMLDHEYTTKEIFRKNFFKDWRKEMTNEEKNIITNLSKCDFTQMSQYFKAQTEARKQMSKEEKLKIKEENEKLLKEYGFCIMDNHKERIANFKIEPPGLFRGRGNHPKMGMLKRRIMPEDIIINCSKDAKVPSPPPGHKWKEVRHDNKVTWLVSWTENIQGSIKYIMLNPSSRIKGEKDWQKYETARRLKKCVDKIRNQYREDWKSKEMKVRQRAVALYFIDKLALRAGNEKEEGETADTVGCCSLRVEHINLHPELDGQEYVVEFDFLGKDSIRYYNKVPVEKRVFKNLQLFMENKQPEDDLFDRLNTGILNKHLQDLMEGLTAKVFRTYNASITLQQQLKELTAPDENIPAKILSYNRANRAVAILCNHQRAPPKTFEKSMMNLQTKIDAKKEQLADARRDLKSAKADAKVMKDAKTKKVVESKKKAVQRLEEQLMKLEVQATDREENKQIALGTSKLNYLDPRITVAWCKKWGVPIEKIYNKTQREKFAWAIDMADEDYEF
effect on catenation of single-stranded DNA molecules in coexistence with the Ev1 protein [2]: promoted
